Experimental data taken from PMC8205012, “Novel CD123 polyaptamer hydrogel edited by Cas9/sgRNA for AML-targeted therapy”.

Biological target: Cas9 (UniProt Q99ZW2 1-1368)
Assay: flow cytometry, Cas9 beads; Cell binding: 1e5 cells, 50 nM (flow) or 5 uM (confocal) FAM-DNA, 37 C, 30 min, PBS wash; bead assays: beads washed in PBS, binding buffer and temperature not stated
Details: protein: commercial; label: FAM

Sequence of Cas9 (Q99ZW2 whole entry): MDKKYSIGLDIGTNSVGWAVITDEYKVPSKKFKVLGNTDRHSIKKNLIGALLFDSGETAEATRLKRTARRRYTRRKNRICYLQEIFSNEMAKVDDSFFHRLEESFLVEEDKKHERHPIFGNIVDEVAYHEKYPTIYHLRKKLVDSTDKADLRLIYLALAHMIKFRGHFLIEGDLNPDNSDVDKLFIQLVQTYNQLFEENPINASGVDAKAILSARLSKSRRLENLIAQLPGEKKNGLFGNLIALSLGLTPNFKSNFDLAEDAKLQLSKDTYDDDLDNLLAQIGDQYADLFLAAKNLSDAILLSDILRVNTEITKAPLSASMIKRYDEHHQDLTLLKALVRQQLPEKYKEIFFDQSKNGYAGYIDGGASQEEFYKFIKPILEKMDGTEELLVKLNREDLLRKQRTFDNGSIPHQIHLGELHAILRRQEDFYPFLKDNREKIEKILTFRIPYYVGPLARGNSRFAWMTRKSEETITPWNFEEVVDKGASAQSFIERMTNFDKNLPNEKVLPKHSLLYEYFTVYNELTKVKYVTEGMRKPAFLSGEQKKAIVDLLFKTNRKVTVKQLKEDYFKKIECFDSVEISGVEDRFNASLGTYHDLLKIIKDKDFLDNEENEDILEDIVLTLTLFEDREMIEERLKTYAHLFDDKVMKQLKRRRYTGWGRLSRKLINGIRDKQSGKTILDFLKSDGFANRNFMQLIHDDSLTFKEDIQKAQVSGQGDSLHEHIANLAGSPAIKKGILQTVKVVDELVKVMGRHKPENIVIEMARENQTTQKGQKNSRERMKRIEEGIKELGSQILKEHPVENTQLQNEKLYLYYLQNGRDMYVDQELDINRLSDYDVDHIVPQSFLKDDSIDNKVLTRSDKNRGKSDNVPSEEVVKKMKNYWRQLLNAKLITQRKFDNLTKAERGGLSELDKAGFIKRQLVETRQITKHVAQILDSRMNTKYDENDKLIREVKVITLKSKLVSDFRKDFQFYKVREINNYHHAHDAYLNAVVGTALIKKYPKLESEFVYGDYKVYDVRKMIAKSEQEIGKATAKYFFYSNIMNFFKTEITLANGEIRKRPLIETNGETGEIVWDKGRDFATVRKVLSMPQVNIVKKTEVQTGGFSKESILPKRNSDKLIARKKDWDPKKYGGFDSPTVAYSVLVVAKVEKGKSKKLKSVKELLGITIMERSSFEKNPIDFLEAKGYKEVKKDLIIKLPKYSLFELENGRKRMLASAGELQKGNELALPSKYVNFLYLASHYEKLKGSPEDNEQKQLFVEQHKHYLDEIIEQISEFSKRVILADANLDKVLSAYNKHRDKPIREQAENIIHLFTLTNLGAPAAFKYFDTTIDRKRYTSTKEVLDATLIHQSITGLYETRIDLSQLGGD

B1: sgRNA (structured_RNA)
RNA: GGUGGUGCAGAUGAACUUCAGUUUUAGAGCUAGAAAUAGCAAGUUAAAAUAAGGCUAGUCCGUUAUCAACUUGAAAAAGUGGCACCGAGUCGGUGCUUUU
binding result: binds
